Starred links: 1 amine or outer side, 2 acyl side, 3 side chain; linkers in the order of their positions; H or OH if unused. Non-standard residues stand in square brackets, D forms with d. Groups on a side chain read outwards from the residue. No end group written: not given here. *: point of attachment. C20 diacid = O=C(O)CCCCCCCCCCCCCCCCCCC(=O)*; γGlu = O=C(O)[C@H](CCC(=O)[*:2])N[*:1]; AEEA = NCCOCCOCC(=O)O; Aib = CC(C)(N)C(=O)O
T1: NPY2 receptor (human (printed as hNPY2R), UniProt P49146 1-381)
T1 sequence (looked up): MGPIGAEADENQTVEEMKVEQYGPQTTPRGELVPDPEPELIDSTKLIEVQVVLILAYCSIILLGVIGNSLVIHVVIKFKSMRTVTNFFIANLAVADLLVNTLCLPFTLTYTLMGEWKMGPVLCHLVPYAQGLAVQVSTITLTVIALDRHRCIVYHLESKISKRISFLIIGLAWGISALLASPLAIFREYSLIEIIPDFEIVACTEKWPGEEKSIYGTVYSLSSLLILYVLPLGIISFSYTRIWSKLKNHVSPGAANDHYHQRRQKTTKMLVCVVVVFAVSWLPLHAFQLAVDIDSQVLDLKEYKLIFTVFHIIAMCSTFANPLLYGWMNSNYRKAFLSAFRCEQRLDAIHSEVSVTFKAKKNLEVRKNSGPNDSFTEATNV

T2: GIP receptor (human (printed as hGIPR), UniProt P48546 22-466)
T2 sequence (looked up): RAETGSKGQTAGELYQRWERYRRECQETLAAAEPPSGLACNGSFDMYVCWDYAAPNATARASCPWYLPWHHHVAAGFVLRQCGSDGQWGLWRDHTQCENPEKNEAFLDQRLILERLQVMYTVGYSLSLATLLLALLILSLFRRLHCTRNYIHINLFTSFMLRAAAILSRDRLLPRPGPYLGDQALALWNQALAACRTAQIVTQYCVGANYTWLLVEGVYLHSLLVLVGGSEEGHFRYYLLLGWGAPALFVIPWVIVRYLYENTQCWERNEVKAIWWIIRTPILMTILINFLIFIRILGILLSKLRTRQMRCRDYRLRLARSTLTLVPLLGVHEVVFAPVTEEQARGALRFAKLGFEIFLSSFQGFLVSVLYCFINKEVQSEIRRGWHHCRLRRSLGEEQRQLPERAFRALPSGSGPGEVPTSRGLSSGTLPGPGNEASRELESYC


Experiments:
Experiment in all cases: cell-based or functional assay
NPY2 receptor = molecular target: T1, NPY2 receptor
GIP receptor = molecular target: T2, GIP receptor
GLP-1 receptor = GLP-1 receptor (human (printed as hGLP1R), UniProt P43220 24-463)

Row | Binder | EC50 hNPY2R 0.5% hP (CreLuc) (NPY2 receptor) | EC50 hNPY2R 100% hP (CreLuc) (NPY2 receptor) | EC50 hGIPR 0.5% hP (CreLuc) (GIP receptor) | EC50 hGIPR 100% hP (CreLuc) (GIP receptor) | EC50 hGLP1R 0.5% hP (CreLuc) (GLP-1 receptor) | EC50 hGLP1R 100% hP (CreLuc) (GLP-1 receptor)
1 | Y[Aib]EGTFTSDYSI[Aib]LEKQAE[Aib]AFVQWLIK([AEEA-AEEA-γGlu-γGlu-γGlu-γGlu-C20 diacid])GGPSEGASLRHYYNWLTRQRY-NH2 (also: TFA salt) [Compound 219] | 12.8 nM | 43.4 nM | 0.46 nM | 2.43 nM | 0.61 nM | 16.1 nM
2 | Y[Aib]EGTFTSDYSI[Aib]LEKQAQ[Aib]EFVQWLIKGGPSEGASLRHYYNWLTRQRY-NH2 (not fully specified (residue 28); also: TFA salt) [Compound 207] | 11 nM | 50.3 nM | 0.63 nM | 1.66 nM | 0.36 nM | 12.7 nM
3 | Y[Aib]EGTFTSDYSI[Aib]LEKQAQ[Aib]AFVEWLIKGGPSSGVSLRHYYNWLTRQRY-NH2 (not fully specified (residue 28); also: TFA salt) [Compound 212] | 13.5 nM | 122 nM | 0.24 nM | 1.83 nM | 0.11 nM | 3.69 nM
4 | YXEGTFTSDYSIXLEKQAQXAFVEWLIKGGPSSGASLRHYYNWLTRXRY (Aib at 2, 13, 20; bHGln (beta-homo-L-glutamine) at 47; K28 side chain carries C20DA-gGlu-gGlu-gGlu-gGlu-gGlu-gGlu-eLys; C-terminal amide) [Compound 208] | > 100 nM | > 1000 nM | 0.07 nM | 0.81 nM | 0.11 nM | 1.51 nM
5 | YXEGTFTSDYSIXLEKQAQXAFVEWLIKGGPSEYVSLRHYYNWLTRQRY (Aib at 2, 13, 20; K28 side chain carries C20DA-gGlu-gGlu-gGlu-gGlu-gGlu-gGlu-eLys; C-terminal amide) [Compound 217] | 18.6 nM | 35.4 nM | 0.74 nM | 8.85 nM | 1.34 nM | 17.2 nM
6 | YXEGTFTSDYSIXLEKQAQXAFVEWLIKGGPSSGASLRHYYNXLTRQRY (Aib at 2, 13, 20, 43; K28 side chain carries C20DA-gGlu-gGlu-gGlu-gGlu-gGlu-gGlu-eLys; C-terminal amide) [Compound 218] | 87.4 nM | 623 nM | 0.36 nM | 2.35 nM | 0.16 nM | 3.3 nM
7 | YXEGTFTSDYSIXLEKQAQXAFVEWLIKGGPSSGASLRHYYXWLTRQRY (Aib at 2, 13, 20, 42; K28 side chain carries C20DA-gGlu-gGlu-gGlu-gGlu-gGlu-gGlu-eLys; C-terminal amide) [Compound 213] | > 100 nM | > 1000 nM | 0.34 nM | 1.53 nM | 0.16 nM | 3.03 nM
8 | YXEGTFTSDYSIXLEKQAQXAFVEWLIKGGPSSGASLRHYYNWLTRQRY (Aib at 2, 13, 20; D-Tyr at 49; K28 side chain carries C20DA-gGlu-gGlu-gGlu-gGlu-gGlu-gGlu-eLys; C-terminal amide) [Compound 214] | > 99.9 nM | 283 nM | 0.23 nM | 1.81 nM | 0.19 nM | 2.65 nM
9 | YXEGTFTSDYSIXLEKQAQRAFVEWLIKGGPSSGASLRHYYNWLTRQRY (Aib at 2, 13; D-Arg at 20; K28 side chain carries C20DA-gGlu-gGlu-gGlu-gGlu-gGlu-gGlu-eLys; C-terminal amide) [Compound 216] | 2.81 nM | 16.8 nM | 9.45 nM | 64.2 nM | 0.31 nM | 10.6 nM
10 | YXEGTFTSDYSIXLEKQAQDAFVEWLIKGGPSSGASLRHYYNWLTRQRY (Aib at 2, 13; D-Asp at 20; K28 side chain carries C20DA-gGlu-gGlu-gGlu-gGlu-gGlu-gGlu-eLys; C-terminal amide) [Compound 211] | 11.2 nM | 56.3 nM | 0.85 nM | 9.79 nM | 0.74 nM | 25.9 nM
11 | YXEGTFTSDYSIXLEKQAQXAFVQWLIKGGPSEGASLRHYYNWLTRQRY (Aib at 2, 13, 20; K28 side chain carries C20DA-gGlu-gGlu-gGlu-gGlu-gGlu-gGlu-eLys; C-terminal amide) [Compound 220] | 10.2 nM | 42.6 nM | 0.29 nM | 1.83 nM | 0.17 nM | 5.28 nM
12 | YXEGTFTSDYSIXLELQAQXAFVEWLIKGGPSSGASLRHYYNWLTRQRY (Aib at 2, 13, 20; K28 side chain carries C20DA-gGlu-gGlu-gGlu-gGlu-gGlu-gGlu-eLys; C-terminal amide) [Compound 209] | 35.2 nM | 171 nM | 0.81 nM | 8.57 nM | 0.48 nM | 16.7 nM
13 | YXEGTFTSDYSIXLEKQAQXAFVEWLIKGGPSSGASLLHYYNWLTRQRY (Aib at 2, 13, 20; K28 side chain carries C20DA-gGlu-gGlu-gGlu-gGlu-gGlu-gGlu-eLys; C-terminal amide) [Compound 210] | 54.1 nM | 430 nM | 0.28 nM | 2.3 nM | 0.19 nM | 3.39 nM
14 | YXEGTFTSDYSIXLEKQAQXEFVEWLIKGGPSSGASLRHYYNWLTRQRY (Aib at 2, 13, 20; K28 side chain carries C20DA-gGlu-gGlu-gGlu-gGlu-gGlu-gGlu-eLys; C-terminal amide) [Compound 215] | 12.4 nM | 22.5 nM | 0.5 nM | 2.94 nM | 0.66 nM | 14 nM
15 | Y[Aib]EGTFTSDYSI[Aib]LEKQAQ[Aib]AFVEWLIKGGPEEPASLRHYYNWLTRQRY-NH2 (not fully specified (residue 28); also: TFA salt) [Compound 206] | 13.4 nM | 61.7 nM | 0.25 nM | 2.61 nM | 0.43 nM | 17.2 nM

Reference: US20240247080A1, “GLP1/GIP/NPY2 RECEPTOR TRIPLE AGONISTS” (Boehringer Ingelheim International GmbH, priority 2022, published 2024)
